Assay [1] concerns the target T1, TRIB1(84–372) (human, UniProt Q96RU8 84-372).
T1 sequence (looked up): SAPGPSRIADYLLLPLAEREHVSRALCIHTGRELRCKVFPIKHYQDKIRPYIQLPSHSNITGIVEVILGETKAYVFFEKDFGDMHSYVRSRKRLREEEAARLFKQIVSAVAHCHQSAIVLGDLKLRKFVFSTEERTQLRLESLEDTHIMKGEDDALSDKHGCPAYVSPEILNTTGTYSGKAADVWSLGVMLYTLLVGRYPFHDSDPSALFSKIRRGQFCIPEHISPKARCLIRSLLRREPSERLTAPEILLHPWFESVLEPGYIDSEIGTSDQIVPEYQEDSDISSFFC
In words: ITC.

Assay [2] deals with COP1 WD40 domain (376–731) (UniProt Q8NHY2 376-731). In words: fluorescence polarisation.
In assay [3] the target is T2, GST-TRIB1(84–372) wild type (human, UniProt Q96RU8 84-372).
T2 sequence (looked up): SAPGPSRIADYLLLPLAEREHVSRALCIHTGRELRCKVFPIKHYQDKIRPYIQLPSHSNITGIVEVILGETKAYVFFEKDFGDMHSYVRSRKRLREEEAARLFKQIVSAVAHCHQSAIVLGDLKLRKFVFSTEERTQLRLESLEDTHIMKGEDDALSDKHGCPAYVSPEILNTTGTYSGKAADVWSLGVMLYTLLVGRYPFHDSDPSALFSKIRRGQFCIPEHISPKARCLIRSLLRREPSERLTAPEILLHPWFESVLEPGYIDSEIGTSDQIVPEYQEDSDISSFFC
In words: pull-down.

For the next assay, the target named is T3, GST-TRIB1(84–372) S240W (human, UniProt Q96RU8 84-372, S240W).
T3 sequence (looked up): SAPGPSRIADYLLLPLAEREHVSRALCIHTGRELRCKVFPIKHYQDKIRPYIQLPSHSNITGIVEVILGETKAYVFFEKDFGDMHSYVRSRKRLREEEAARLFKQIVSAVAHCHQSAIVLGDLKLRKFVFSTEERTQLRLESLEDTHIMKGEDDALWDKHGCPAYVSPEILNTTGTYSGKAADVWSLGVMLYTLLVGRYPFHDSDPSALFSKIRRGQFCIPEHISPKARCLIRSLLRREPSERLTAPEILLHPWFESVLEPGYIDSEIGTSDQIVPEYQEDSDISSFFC
In words: pull-down.

Assay [4] deals with T1, TRIB1(84–372). In words: differential scanning fluorimetry.

No end group written: not given here. *: point of attachment. FITC = O=C1OC2(c3ccc(O)cc3Oc3cc(O)ccc32)c2ccc(NC(=S)*)cc21

The results in this text go back to article PMC6553639 (Science signaling, 2018).

Sequence of COP1 WD40 domain (376–731) (Q8NHY2 376-731): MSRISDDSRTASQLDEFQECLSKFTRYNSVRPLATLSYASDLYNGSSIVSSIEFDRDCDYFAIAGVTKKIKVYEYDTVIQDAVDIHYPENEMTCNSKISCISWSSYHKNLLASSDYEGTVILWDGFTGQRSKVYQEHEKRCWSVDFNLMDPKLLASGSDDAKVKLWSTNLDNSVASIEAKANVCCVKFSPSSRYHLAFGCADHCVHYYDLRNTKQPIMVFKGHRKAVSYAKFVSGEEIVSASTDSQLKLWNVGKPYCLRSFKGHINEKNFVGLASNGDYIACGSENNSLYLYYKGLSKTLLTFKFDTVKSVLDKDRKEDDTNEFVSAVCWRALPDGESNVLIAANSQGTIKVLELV

In the case of GDMCEHEASIDLSAYIESGEEQL (peptide, UniProt Q15744 31-53, looked up) [C/EBPε(31–53) fused to MBP], the binding result in the assay with TRIB1(84–372) [1] is recorded as “binds”.
In the case of {FITC}-SEIGTSDQIVPEYQEDSDI (peptide, UniProt Q96RU8 349-367, looked up) [FITC-TRIB1(349–367)], the binding result in assay [2] was “binds”.
For PAMYDDESAIDFSAYIDSMAAVP (peptide, UniProt P49716 50-72, looked up) [C/EBPδ(50–72) fused to MBP], the binding result with TRIB1(84–372) [1] is listed as “binds”.
As to GGICEHETSIDISAYIDPAAFND (peptide, UniProt P49715 53-75, looked up) [His6MBP-C/EBPα(53–75)], the binding result (in assay [3]; with GST-TRIB1(84–372) S240W; in the assay with TRIB1(84–372) [1]) was “binds” throughout.
GGICEHETSIDISAYIDPAAFND (peptide, UniProt P49715 53-75, looked up) [C/EBPα degron peptide (53 to 75)]: the binding result with TRIB1(84–372) [4] is reported as “binds”.
Consider SEIGTSDQIVPEYQEDSDI (peptide, UniProt Q96RU8 349-367, looked up) [TRIB1 peptide (residues 349 to 367)], for which the binding result in assay [2] is recorded as “binds”.
